Assays:
[1] = target: putative BibA receptor on human epithelial cells (ME180, A549, Caco2, 16HBE); assay: flow cytometry, recombinant BibA on ME180 cells, anti-BibA serum and PE-conjugated secondary antibody
[2] = target: putative BibA receptor on human epithelial cells (ME180, A549, Caco2, 16HBE); assay: flow cytometry saturation curve on ME180 cells, BibA concentration at 50% saturation (FIG. 22B)
[3] = target: T1, human C4b-binding protein (C4BP) purified from citrated human plasma (human, UniProt P04003 49-597; P20851 18-252); assay: overlay blot of the SDS-PAGE separated constructs with C4bp (FIG. 21C)
T1 construct: also called human plasma C4BP; human complement regulator C4 bp
T1 sequence 1: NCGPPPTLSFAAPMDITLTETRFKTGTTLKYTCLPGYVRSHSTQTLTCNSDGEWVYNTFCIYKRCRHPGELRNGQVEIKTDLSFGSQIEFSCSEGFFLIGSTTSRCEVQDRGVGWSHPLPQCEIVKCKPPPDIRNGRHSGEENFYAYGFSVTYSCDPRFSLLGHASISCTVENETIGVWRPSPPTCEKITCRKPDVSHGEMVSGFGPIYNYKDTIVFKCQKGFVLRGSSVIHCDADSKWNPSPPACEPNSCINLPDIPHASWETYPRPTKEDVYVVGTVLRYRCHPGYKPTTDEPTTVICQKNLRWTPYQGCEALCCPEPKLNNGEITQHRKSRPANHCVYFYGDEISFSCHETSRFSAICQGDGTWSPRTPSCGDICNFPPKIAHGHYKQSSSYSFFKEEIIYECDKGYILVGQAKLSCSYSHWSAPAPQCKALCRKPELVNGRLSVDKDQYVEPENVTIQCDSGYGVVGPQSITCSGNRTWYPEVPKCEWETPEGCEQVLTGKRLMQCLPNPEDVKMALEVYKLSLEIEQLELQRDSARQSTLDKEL
T1 sequence 2: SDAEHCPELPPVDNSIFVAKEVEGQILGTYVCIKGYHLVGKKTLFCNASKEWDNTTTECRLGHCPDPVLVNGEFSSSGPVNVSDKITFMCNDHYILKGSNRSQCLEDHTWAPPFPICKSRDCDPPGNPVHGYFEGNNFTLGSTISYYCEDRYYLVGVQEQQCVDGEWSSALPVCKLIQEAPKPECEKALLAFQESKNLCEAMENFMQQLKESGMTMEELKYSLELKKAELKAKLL

[4] = target: T2, Factor H (alternative complement pathway regulator) (UniProt P08603 19-1231); assay: overlay blot (format not detailed)
T2 construct: also called FH
T2 sequence (P08603 19-1231): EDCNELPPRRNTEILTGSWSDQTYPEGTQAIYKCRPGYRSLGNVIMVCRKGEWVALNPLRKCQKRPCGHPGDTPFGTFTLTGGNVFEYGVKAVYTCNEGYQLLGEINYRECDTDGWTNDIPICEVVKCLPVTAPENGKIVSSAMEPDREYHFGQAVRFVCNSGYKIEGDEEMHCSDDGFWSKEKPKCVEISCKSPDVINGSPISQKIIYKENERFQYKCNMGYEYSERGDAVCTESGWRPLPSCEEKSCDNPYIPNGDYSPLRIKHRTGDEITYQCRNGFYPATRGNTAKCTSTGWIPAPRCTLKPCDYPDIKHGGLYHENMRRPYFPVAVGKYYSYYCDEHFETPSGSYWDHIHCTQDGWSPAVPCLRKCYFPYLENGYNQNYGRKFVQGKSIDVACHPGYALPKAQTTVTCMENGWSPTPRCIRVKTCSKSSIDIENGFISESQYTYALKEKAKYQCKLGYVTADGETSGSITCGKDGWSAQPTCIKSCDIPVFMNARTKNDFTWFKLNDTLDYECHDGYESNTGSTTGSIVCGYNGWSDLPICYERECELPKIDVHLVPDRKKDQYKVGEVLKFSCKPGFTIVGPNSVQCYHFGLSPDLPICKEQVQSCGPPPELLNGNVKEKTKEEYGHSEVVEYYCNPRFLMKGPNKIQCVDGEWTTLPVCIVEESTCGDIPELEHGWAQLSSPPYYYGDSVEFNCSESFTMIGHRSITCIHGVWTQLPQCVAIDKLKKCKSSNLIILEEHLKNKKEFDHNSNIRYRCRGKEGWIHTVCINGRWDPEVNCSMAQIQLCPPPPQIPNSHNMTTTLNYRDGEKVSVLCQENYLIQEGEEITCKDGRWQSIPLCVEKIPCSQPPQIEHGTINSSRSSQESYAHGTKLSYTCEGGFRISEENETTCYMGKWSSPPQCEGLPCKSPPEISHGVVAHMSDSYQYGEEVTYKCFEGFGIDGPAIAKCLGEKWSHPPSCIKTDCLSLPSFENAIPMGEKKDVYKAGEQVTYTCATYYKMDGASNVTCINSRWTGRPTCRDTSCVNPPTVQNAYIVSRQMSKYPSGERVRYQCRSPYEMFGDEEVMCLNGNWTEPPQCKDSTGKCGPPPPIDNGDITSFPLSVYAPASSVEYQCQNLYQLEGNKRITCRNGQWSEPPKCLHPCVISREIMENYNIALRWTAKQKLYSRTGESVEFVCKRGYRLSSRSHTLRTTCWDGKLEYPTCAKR

BibA-His (GBS3-His), recombinant entire form of BibA from S. agalactiae 2603 V/R with C-terminal His-tag
BibA concentration at which binding reached a plateau [1]: 5 µg/mL
Kd [2]: 40 nM

B1: BibA-Nt-His (GBS3-Nt-His), coiled-coil domain of BibA, aa 34-394 (other)
chain: MHADTSSGISASIPHKKQVNLGAVTLKNLISKYRGNDKAIAILLSRVNDFNRASQDTLPQLINSTEAEIRNILYQGQIGKQNKPSVTTHAKVSDQELGKQSRRSQDIIKSLGFLSSDQKDILVKSISSSKDSQLILKFVTQATQLNNAESTKAKQMAQNDVALIKNISPEVLEEYKEKIQRASTKSQVDEFVAEAKKVVNSNKETLVNQANGKKQEIAKLENLSNDEMLRYNTAIDNVVKQYNEGKLNITAAMNALNSIKQAAQEVAQKNLQKQYAKKIERISSKGLALSKKAKEIYEKHKSILPTPGYYADSVGTYLNRFRDKQTFGNRSVWTGQSGLDEAKKMLDEVKKLLKELQDLTRGLEHHHHHH
notes: His-tagged fragment expressed from pET21b(+); also called BibA N-terminal construct; N-terminal portion of BibA
binding result [3]: binds

B2: BibA-His (GBS3-His), recombinant entire form of BibA from S. agalactiae 2603 V/R with C-terminal His-tag (other)
chain: MHADTSSGISASIPHKKQVNLGAVTLKNLISKYRGNDKAIAILLSRVNDFNRASQDTLPQLINSTEAEIRNILYQGQIGKQNKPSVTTHAKVSDQELGKQSRRSQDIIKSLGFLSSDQKDILVKSISSSKDSQLILKFVTQATQLNNAESTKAKQMAQNDVALIKNISPEVLEEYKEKIQRASTKSQVDEFVAEAKKVVNSNKETLVNQANGKKQEIAKLENLSNDEMLRYNTAIDNVVKQYNEGKLNITAAMNALNSIKQAAQEVAQKNLQKQYAKKIERISSKGLALSKKAKEIYEKHKSILPTPGYYADSVGTYLNRFRDKQTFGNRSVWTGQSGLDEAKKMLDEVKKLLKELQDLTRGTKEDKKPDVKPEAKPEAKPDVKPEAKPDVKPEAKPDVKPEAKPDVKPEAKPDVKPEAKPDVKPKAKPDVKPEAKPDVKPDVKPDVKPEAKPEDKPDVKPDVKPEAKPDVKPEAKPEAKPEAKPEAKPEAKPEAKPDVKPEAKPDVKPEAKPEAKPEAKSEAKPEAKLEAKPEAKPATKKSVNTSGNLAAKKAIENKKYSKKLPSTGEAASPLLAIVSLIVMLSAGLITLEHHHHHH
notes: His-tagged protein expressed from pET21b(+) in E. coli; also called recombinant BibA; BibA protein
binding result [4]: no binding

B3: BibA-Ct-His (GBS3-Ct-His), proline-rich domain of BibA, aa 389-622 (other)
chain: MQDLTRGTKEDKKPDVKPEAKPEAKPDVKPEAKPDVKPEAKPDVKPEAKPDVKPEAKPDVKPEAKPDVKPKAKPDVKPEAKPDVKPDVKPDVKPEAKPEDKPDVKPDVKPEAKPDVKPEAKPEAKPEAKPEAKPEAKPEAKPDVKPEAKPDVKPEAKPEAKPEAKSEAKPEAKLEAKPEAKPATKKSVNTSGNLAAKKAIENKKYSKKLPSTGEAASPLLAIVSLIVMLSAGLITLEHHHHHH
notes: His-tagged fragment; also called BibA C-terminal construct; C-terminal portion of BibA
binding result [3]: no binding (tested: 5 µg/ml)

Reference: patent publication US20090214537A1 (Novartis, published 2009)
